Patent US20160058848A1

Experiments:
[1] = biological target: human corin mutant K317E (human) (UniProt Q9Y5Q5); assay: cell-based or functional assay
[2] = biological target: human corin mutant R539C (human) (UniProt Q9Y5Q5); assay: cell-based or functional assay
[3] = biological target: human corin mutant S472G (human) (UniProt Q9Y5Q5); assay: cell-based or functional assay
[4] = biological target: T1, human corin variant T555I, Q9Y5Q5
T1 chain: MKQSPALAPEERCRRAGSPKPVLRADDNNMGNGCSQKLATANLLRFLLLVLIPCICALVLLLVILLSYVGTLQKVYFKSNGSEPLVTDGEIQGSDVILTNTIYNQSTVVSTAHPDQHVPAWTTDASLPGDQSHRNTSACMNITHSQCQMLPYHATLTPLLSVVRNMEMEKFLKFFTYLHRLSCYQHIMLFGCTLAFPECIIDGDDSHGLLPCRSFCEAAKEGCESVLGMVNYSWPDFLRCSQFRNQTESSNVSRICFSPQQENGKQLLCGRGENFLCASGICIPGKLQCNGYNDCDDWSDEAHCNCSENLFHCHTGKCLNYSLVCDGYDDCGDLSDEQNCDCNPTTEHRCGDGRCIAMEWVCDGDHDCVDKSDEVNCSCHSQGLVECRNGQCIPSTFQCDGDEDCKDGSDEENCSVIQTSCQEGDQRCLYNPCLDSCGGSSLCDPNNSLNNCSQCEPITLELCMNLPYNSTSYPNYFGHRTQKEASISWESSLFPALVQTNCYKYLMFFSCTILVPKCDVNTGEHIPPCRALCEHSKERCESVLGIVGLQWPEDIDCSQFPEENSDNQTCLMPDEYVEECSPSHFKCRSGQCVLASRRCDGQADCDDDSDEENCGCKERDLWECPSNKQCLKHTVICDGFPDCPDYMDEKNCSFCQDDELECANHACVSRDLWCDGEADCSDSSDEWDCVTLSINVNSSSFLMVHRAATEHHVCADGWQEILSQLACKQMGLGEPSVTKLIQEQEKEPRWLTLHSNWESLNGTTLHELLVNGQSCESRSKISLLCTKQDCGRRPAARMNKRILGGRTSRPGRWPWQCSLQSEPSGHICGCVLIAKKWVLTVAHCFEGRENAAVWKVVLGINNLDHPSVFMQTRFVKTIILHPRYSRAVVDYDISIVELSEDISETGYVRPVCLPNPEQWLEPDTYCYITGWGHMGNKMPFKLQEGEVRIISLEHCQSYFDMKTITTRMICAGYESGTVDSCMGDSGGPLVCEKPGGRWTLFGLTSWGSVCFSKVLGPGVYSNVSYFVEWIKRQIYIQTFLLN

[5] = biological target: T2, human corin mutant R801A, Q9Y5Q5
T2 chain: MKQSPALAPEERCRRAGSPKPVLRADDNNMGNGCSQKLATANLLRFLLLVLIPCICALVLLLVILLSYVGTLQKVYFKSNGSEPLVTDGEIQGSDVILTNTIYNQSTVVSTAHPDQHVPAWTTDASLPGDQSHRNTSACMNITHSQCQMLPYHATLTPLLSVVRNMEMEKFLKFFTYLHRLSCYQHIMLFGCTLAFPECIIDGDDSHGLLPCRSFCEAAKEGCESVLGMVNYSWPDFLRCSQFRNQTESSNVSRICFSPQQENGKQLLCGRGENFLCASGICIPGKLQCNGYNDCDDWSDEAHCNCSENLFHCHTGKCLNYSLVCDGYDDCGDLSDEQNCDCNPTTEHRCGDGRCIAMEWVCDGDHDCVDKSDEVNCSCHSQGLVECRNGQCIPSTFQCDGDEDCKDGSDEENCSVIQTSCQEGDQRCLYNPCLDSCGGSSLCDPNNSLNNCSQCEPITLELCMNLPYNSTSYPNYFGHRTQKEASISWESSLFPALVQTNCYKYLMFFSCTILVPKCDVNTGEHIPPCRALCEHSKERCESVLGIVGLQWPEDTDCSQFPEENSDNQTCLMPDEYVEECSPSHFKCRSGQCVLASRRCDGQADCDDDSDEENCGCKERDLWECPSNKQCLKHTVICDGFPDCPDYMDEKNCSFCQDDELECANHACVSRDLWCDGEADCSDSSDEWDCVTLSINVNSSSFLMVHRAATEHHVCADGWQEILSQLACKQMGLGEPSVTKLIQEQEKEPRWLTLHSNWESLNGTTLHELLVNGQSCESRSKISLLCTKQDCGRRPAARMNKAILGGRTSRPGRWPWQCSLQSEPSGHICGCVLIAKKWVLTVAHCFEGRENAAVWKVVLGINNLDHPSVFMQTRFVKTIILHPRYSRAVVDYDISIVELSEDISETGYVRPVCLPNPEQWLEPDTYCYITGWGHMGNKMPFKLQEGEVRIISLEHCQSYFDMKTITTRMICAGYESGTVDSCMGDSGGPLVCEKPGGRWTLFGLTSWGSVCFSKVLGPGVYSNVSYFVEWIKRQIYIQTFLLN

- reduction in PCSK6-mediated corin activation compared with WT corin (Western blot, densitometry) (% reduction vs WT corin) [1]: 39
- reduction in PCSK6-mediated corin activation compared with WT corin (Western blot, densitometry) (% reduction vs WT corin) [2]: 62
- reduction in PCSK6-mediated corin activation compared with WT corin (Western blot, densitometry) (% reduction vs WT corin) [3]: 99
B1: recombinant human proprotein convertase subtilisin/kexin-6 (PCSK6) with a C-terminal flag tag (protein)
chain: QVRSDPQALYFNDPIWSNMWYLHCGDKNSRCRSEMNVQAAWKRGYTGKNVVVTILDDGIERNHPDLAPNYDSYASYDVNGNDYDPSPRYDASNENKHGTRCAGEVAASANNSYCIVGIAYNAKIGGIRMLDGDVTDVVEAKSLGIRPNYIDIYSASWGPDDDGKTVDGPGRLAKQAFEYGIKKGRQGLGSIFVWASGNGGREGDYCSCDGYTNSIYTISVSSATENGYKPWYLEECASTLATTYSSGAFYERKIVTTDLRQRCTDGHTGTSVSAPMVAGIIALALEANSQLTWRDVQHLLVKTSRPAHLKASDWKVNGAGHKVSHFYGFGLVDAEALVVEAKKWTAVPSQHMCVAASDKRPRSIPLVQVLRTTALTSACAEHSDQRVVYLEHVVVRTSISHPRRGDLQIYLVSPSGTKSQLLAKRLLDLSNEGFTNWEFMTVHCWGEKAEGQWTLEIQDLPSQVRNPEKQGKLKEWSLILYGTAEHPYHTFSAHQSRSRMLELSAPELEPPKAALSPSQVEVPEDEEDYTAQSTPGSANILQTSVCHPECGDKGCDGPNADQCLNCVHFSLGSVKTSRKCVSVCPLGYFGDTAARRCRRCHKGCETCSSRAATQCLSCRRGFYHHQEMNTCVTLCPAGFYADESQKNCLKCHPSCKKCVDEPEKCTVCKEGFSLARGSCIPDCEPGTYFDSELIRCGECHHTCGTCVGPGREECIHCAKNFHFHDWKCVPACGEGFYPEEMPGLPHKVCRRCDENCLSCAGSSRNCSRCKTGFTQLGTSCITNHTCSNADETFCEMVKSNRLCERKLFIQFCCRTCLLAG
- PCSK6-mediated activation cleavage (Western blot, densitometry) [4]: PCSK6-mediated activation cleavage was detected in corin WT and variants T555I or Q568P, but not variant T555I/Q568P
- PCSK6-mediated activation cleavage (Western blot, densitometry) [5]: In controls, no activation cleavage was detected in mutant R801A lacking the cleavage site
